Test results from the supplement of paper PMC9732359.
± gives the uncertainty stated by the source.

Assay: protein stability index of a GFP-peptide fusion (yeast GPS) (PSI 1-4); higher = more stable; sorted into four equal gates, so the index is relative within each strain
Details: doa10∆
Summary of the method: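 Plasmids isolated from each sorting gate were PCR-amplified and Illumina-sequenced, and barcodes assigned the reads to strains. The gates, four of equal size, were set by GFP/Cherry fluorescence ratio on mid-log cultures in leucine-free medium. These cultures were yeast carrying a pooled library of tiled 17-residue yeast protein peptides fused downstream of GFP on a plasmid that also expresses Cherry. The protein stability index is the sum of every gate's read frequency times its gate number.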

Sequence | protein stability index
AIDHLKAELEKQKSWVP [YIL149C/MLP2] | 3.05 ± 0.076
AIKKSSMKMELLKKELL [SMC2] | 2.89 ± 0.17
AILLIINLTQTYGISVV [NUT1] | 1.53 ± 0.049
AILRQQQQMANNNGNPG [GAL11] | 2.77 ± 0.12
AIPNSIIKRSNGQSLSP [YMR153W/NUP53] | 2.14 ± 0.12
AIQKKDNKDKEGNAGGD [YOR098C/NUP1] | 3.44 ± 0.17
AIQMVDPASFYLFDEID [SMC3] | 1.95 ± 0.042
AISKKNKSLKYVIHGIE [LIN1] | 2.02 ± 0.058
AIVFEEIKNWISDIPYV [YMR129W/POM152] | 1.36 ± 0.043
AKAPSGLDQSRIPFSER [FAS1] | 2.19 ± 0.081
AKFFLNVSDEQLSNWQK [ITC1] | 3.21 ± 0.073
AKFRLILIESRIHRLAR [RPS13] | 1.52 ± 0.099
AKIISKAPEQFIENFLT [YML103C/NUP188] | 2.69 ± 0.17
AKKRRPAAKGKNLSFKR [RRP6] | 2.9 ± 0.12
AKLRKELVETSEVRKAV [FAS2] | 2.7 ± 0.16
AKNIISNVLDGNKNQFE [LRP1] | 2.46 ± 0.056
AKSNEDKQDGTAKPAFS [YJL041W/NSP1] | 3.03 ± 0.23
AKTLTYPEVVTPYNIDR [RPO21] | 2.17 ± 0.074
ALDTNGTSATTETLTSK [SIR4] | 2.22 ± 0.076
ALEDEERDEILTLTDSQ [BRR2] | 3.09 ± 0.13
ALIFIFFAYFIGWCKED [YJL039C/NUP192] | 1.84 ± 0.088
ALLRENQDSVKTYALES [RPN2] | 3.35 ± 0.15
ALLRVTKSKNKTLIGLQ [POP4] | 2.71 ± 0.055
ALLTKRLYPHWDHPVIA [CSN12] | 2.19 ± 0.13
ALMKTLIKFVDLSRNGR [NUT1] | 2.37 ± 0.11
ALPSTHKVTQKKDIKIG [SIR4] | 2.36 ± 0.099
ALQILNSGIIPGNRNAD [FAS2] | 2.38 ± 0.075

Sequence | protein stability index
ALREMRKSDQQDVLKGS [POP1] | 3.36 ± 0.17
ALSIADDASSAELLGRV [RPC53] | 3.02 ± 0.16
ALTDFERFQVMVLRKQK [RPL14A] | 1.96 ± 0.11
ALVFAALEHLKNLSLLA [SRP68] | 2.79 ± 0.12
ALVYSYIEASGREGIWS [RPC34] | 3.13 ± 0.24
AMLNLINDNNTRPYILE [YCG1] | 3.22 ± 0.11
AMSETLSKVSLLTPDIG [PRE8] | 3.08 ± 0.11
AMVEKYAPDVVRSLENL [RRP42] | 2.59 ± 0.13
ANCQRQLTEFWTELCQR [NNF1] | 3.09 ± 0.081
ANKTNLIESLNTIRQNV [YML103C/NUP188] | 1.57 ± 0.053
ANLLPARQFGYVILTTS [RPS22A] | 1.29 ± 0.053
ANLMLVMLRLLLVVIFK [SRB4] | 1.49 ± 0.045
ANNNMNDELVELLANKC [GRR1] | 2.79 ± 0.061
ANQSATSTPPPPPAPHN [SNF5] | 2.98 ± 0.041
ANVPSTATTGKRKPAKS [RPN4] | 2.64 ± 0.073
APAVELHGNAKKAAEEA [FAS2] | 3.42 ± 0.12
APDGSASISLPNHIPSV [SWP82] | 3.36 ± 0.11
APKIHILDPSTEYCVGD [YMR129W/POM152] | 2.91 ± 0.13
APKWYPSEDVAALKKTR [RPL6A] | 2.5 ± 0.07
APPQTRKFQPPPGFKRK [SMB1] | 3.18 ± 0.088
APSDFSENQRQIFCVFS [GRR1] | 2.93 ± 0.071
APSGIRMHLAPASKQGY [SSN2] | 2.24 ± 0.17
APTLSQTYINQELGFCE [SSN2] | 2.85 ± 0.18
APYRKQIISNAHNKPSL [YAR002W/NUP60] | 2.17 ± 0.073
AQAQAQAQAQAQAAQAA [GAL11] | 2.91 ± 0.055
AQFQYTLDRNTAAETFK [RPL8A] | 2.15 ± 0.082
AQGKEFGVTKARWPAKS [RPL17A] | 3.02 ± 0.13

Sequence | protein stability index
AQGVAVQLKRQPAQPRE [RPL21A] | 1.66 ± 0.088
AQQAQQAQQAQQAQARL [SNF2] | 3.08 ± 0.051
AQQDSTNVRLYSLLLAS [ECM29] | 2.27 ± 0.068
AQQKLKQNPGLMQNMMN [SRP54] | 2.74 ± 0.056
AQWERSKLSQEFLYPHL [SNF12] | 3.1 ± 0.088
ARDAPTKISTLAVKVHG [QCR2] | 1.4 ± 0.11
ARIIAAIPNPEDVVAIS [RPS0A] | 1.8 ± 0.071
ARKETYSSYIYKVLKQT [HTB1] | 2.89 ± 0.058
ARKSAPSTGGVKKPHRY [HHT1] | 1.66 ± 0.065
ARLDGHDFLFNTIIRDG [RPN14] | 2.83 ± 0.091
ARNLIEDEDDGESEKSS [RPC53] | 3.06 ± 0.12
ARRRQPTDQNNQSNLNG [SNF2] | 2.88 ± 0.12
ARVTGGMKVKADRDESS [RPS14B] | 2.5 ± 0.072
ARYNWICDPVHKHREAR [RPL15A] | 3.51 ± 0.12
ASAKSVRSGVSKSAPSK [YAR002W/NUP60] | 2.96 ± 0.078
ASITGTGSNDRCIGDSD [YMR129W/POM152] | 3.11 ± 0.083
ASKGRTKIDMPIKNRKN [BRN1] | 3.21 ± 0.11
ASKSKKKFNMGKEFEAR [RPC53] | 3.33 ± 0.085
ASLALAHVFVGTCNGDI [RPN1] | 2.48 ± 0.059
ASLKIKNATDLQQAKLR [SMC3] | 3.11 ± 0.12
ASLKKMEETEQKKIQIN [SMC3] | 2.33 ± 0.22
ASNEVIAKSRYWYFLQK [RPL20A] | 2.19 ± 0.054
ASRSQLEKGEIELSDGS [YJL039C/NUP192] | 3.06 ± 0.081
ASVEIVFHDPDHSMILP [SMC3] | 2.26 ± 0.11
ASYLTPLLEAKKLVWPL [SSN2] | 2.13 ± 0.14

Same assay, conditions: pdr5∆

Sequence | protein stability index
AIDHLKAELEKQKSWVP [YIL149C/MLP2] | 2.83 ± 0.073
AIKKSSMKMELLKKELL [SMC2] | 2.19 ± 0.095
AILLIINLTQTYGISVV [NUT1] | 1.34 ± 0.043
AILRQQQQMANNNGNPG [GAL11] | 3.19 ± 0.13
AIPNSIIKRSNGQSLSP [YMR153W/NUP53] | 2.68 ± 0.049
AIQKKDNKDKEGNAGGD [YOR098C/NUP1] | 3.32 ± 0.18
AIQMVDPASFYLFDEID [SMC3] | 2.32 ± 0.049
AISKKNKSLKYVIHGIE [LIN1] | 1.84 ± 0.053
AIVFEEIKNWISDIPYV [YMR129W/POM152] | 1.42 ± 0.045
AKAPSGLDQSRIPFSER [FAS1] | 2.19 ± 0.061
AKFFLNVSDEQLSNWQK [ITC1] | 3.21 ± 0.053
AKFRLILIESRIHRLAR [RPS13] | 1.97 ± 0.18
AKIISKAPEQFIENFLT [YML103C/NUP188] | 2.94 ± 0.26
AKKRRPAAKGKNLSFKR [RRP6] | 2.92 ± 0.09
AKNIISNVLDGNKNQFE [LRP1] | 2.77 ± 0.049
AKSNEDKQDGTAKPAFS [YJL041W/NSP1] | 3.44 ± 0.13
AKTLTYPEVVTPYNIDR [RPO21] | 2.35 ± 0.078
ALDTNGTSATTETLTSK [SIR4] | 2.19 ± 0.066
ALEDEERDEILTLTDSQ [BRR2] | 3.25 ± 0.14
ALIFIFFAYFIGWCKED [YJL039C/NUP192] | 1.54 ± 0.062
ALLRENQDSVKTYALES [RPN2] | 2.56 ± 0.16
ALLRVTKSKNKTLIGLQ [POP4] | 2.18 ± 0.053
ALLTKRLYPHWDHPVIA [CSN12] | 1.91 ± 0.1
ALMKTLIKFVDLSRNGR [NUT1] | 2.29 ± 0.09
ALPSTHKVTQKKDIKIG [SIR4] | 2.46 ± 0.071
ALQILNSGIIPGNRNAD [FAS2] | 1.9 ± 0.068

Sequence | protein stability index
ALREMRKSDQQDVLKGS [POP1] | 3.56 ± 0.16
ALSIADDASSAELLGRV [RPC53] | 2.92 ± 0.26
ALTDFERFQVMVLRKQK [RPL14A] | 1.97 ± 0.11
ALVFAALEHLKNLSLLA [SRP68] | 2.75 ± 0.14
ALVYSYIEASGREGIWS [RPC34] | 2.87 ± 0.24
AMLNLINDNNTRPYILE [YCG1] | 3.35 ± 0.15
AMSETLSKVSLLTPDIG [PRE8] | 3.19 ± 0.12
AMVEKYAPDVVRSLENL [RRP42] | 2.81 ± 0.067
ANCQRQLTEFWTELCQR [NNF1] | 2.87 ± 0.08
ANKTNLIESLNTIRQNV [YML103C/NUP188] | 1.83 ± 0.053
ANLLPARQFGYVILTTS [RPS22A] | 1.35 ± 0.044
ANLMLVMLRLLLVVIFK [SRB4] | 1.51 ± 0.047
ANNNMNDELVELLANKC [GRR1] | 2.92 ± 0.044
ANQSATSTPPPPPAPHN [SNF5] | 3.03 ± 0.034
ANVPSTATTGKRKPAKS [RPN4] | 2.88 ± 0.082
APAVELHGNAKKAAEEA [FAS2] | 3.11 ± 0.14
APDGSASISLPNHIPSV [SWP82] | 2.54 ± 0.068
APKIHILDPSTEYCVGD [YMR129W/POM152] | 3.35 ± 0.092
APKWYPSEDVAALKKTR [RPL6A] | 2.97 ± 0.063
APPQTRKFQPPPGFKRK [SMB1] | 3.19 ± 0.1
APSDFSENQRQIFCVFS [GRR1] | 2.58 ± 0.078
APSGIRMHLAPASKQGY [SSN2] | 2.48 ± 0.11
APTLSQTYINQELGFCE [SSN2] | 2.81 ± 0.16
APYRKQIISNAHNKPSL [YAR002W/NUP60] | 2.47 ± 0.081
AQAQAQAQAQAQAAQAA [GAL11] | 3.27 ± 0.045
AQFQYTLDRNTAAETFK [RPL8A] | 2.08 ± 0.082

Sequence | protein stability index
AQGKEFGVTKARWPAKS [RPL17A] | 3.49 ± 0.12
AQGVAVQLKRQPAQPRE [RPL21A] | 1.22 ± 0.081
AQQAQQAQQAQQAQARL [SNF2] | 3.24 ± 0.048
AQQDSTNVRLYSLLLAS [ECM29] | 2.04 ± 0.052
AQQKLKQNPGLMQNMMN [SRP54] | 2.42 ± 0.059
AQWERSKLSQEFLYPHL [SNF12] | 3 ± 0.084
ARDAPTKISTLAVKVHG [QCR2] | 2.09 ± 0.14
ARIIAAIPNPEDVVAIS [RPS0A] | 2.14 ± 0.083
ARKETYSSYIYKVLKQT [HTB1] | 2.43 ± 0.048
ARKSAPSTGGVKKPHRY [HHT1] | 1.87 ± 0.052
ARLDGHDFLFNTIIRDG [RPN14] | 2.95 ± 0.06
ARNLIEDEDDGESEKSS [RPC53] | 3.68 ± 0.18
ARRRQPTDQNNQSNLNG [SNF2] | 3.25 ± 0.19
ARVTGGMKVKADRDESS [RPS14B] | 2.92 ± 0.067
ARYNWICDPVHKHREAR [RPL15A] | 2.81 ± 0.13
ASAKSVRSGVSKSAPSK [YAR002W/NUP60] | 2.92 ± 0.1
ASITGTGSNDRCIGDSD [YMR129W/POM152] | 2.78 ± 0.12
ASKGRTKIDMPIKNRKN [BRN1] | 3.13 ± 0.088
ASKSKKKFNMGKEFEAR [RPC53] | 3.14 ± 0.12
ASLALAHVFVGTCNGDI [RPN1] | 2.61 ± 0.054
ASLKIKNATDLQQAKLR [SMC3] | 2.96 ± 0.11
ASLKKMEETEQKKIQIN [SMC3] | 1.82 ± 0.076
ASNEVIAKSRYWYFLQK [RPL20A] | 2.66 ± 0.066
ASRSQLEKGEIELSDGS [YJL039C/NUP192] | 3.02 ± 0.072
ASVEIVFHDPDHSMILP [SMC3] | 2.54 ± 0.12
ASYLTPLLEAKKLVWPL [SSN2] | 2.04 ± 0.066
